Values joined by “and” are separate entries in the source; they are usually repeats but may differ in a detail not shown here. Equal values may be shown once. Bridges are numbered along the chain shown (N, C = ends). Primed or numbered codes have the meaning given here. [ ]: non-standard residue; d: D form. αMeF = C[C@](N)(Cc1ccccc1)C(=O)O; Bz′ = not defined here; Ppa = not defined here; Sar = CNCC(=O)O
B1: SEQ ID NO: 175 (peptide)
peptide: DWFLICFWKG
HELM: PEPTIDE1{[ac].D.W.F.L.I.C.F.W.K.G}$PEPTIDE1,PEPTIDE1,2:R3-10:R3$$$V2.0
SMILES: CC[C@H](C)[C@@H]1NC(=O)[C@H](CC(C)C)NC(=O)[C@H](Cc2ccccc2)NC(=O)[C@H](Cc2c[nH]c3ccccc23)NC(=O)[C@@H](NC(C)=O)CC(=O)NCCCC[C@@H](C(=O)NCC(=O)O)NC(=O)[C@H](Cc2c[nH]c3ccccc23)NC(=O)[C@H](Cc2ccccc2)NC(=O)[C@H](CS)NC1=O
B2: SEQ ID NO: 189 (peptide)
peptide: XMWFLICFWD
HELM: PEPTIDE1{[O=C(CCCCCN[*:1])[*:2]].M.W.F.L.I.C.F.W.D}$PEPTIDE1,PEPTIDE1,1:R1-10:R3$$$V2.0
SMILES: CC[C@H](C)[C@@H]1NC(=O)[C@H](CC(C)C)NC(=O)[C@H](Cc2ccccc2)NC(=O)[C@H](Cc2c[nH]c3ccccc23)NC(=O)[C@H](CCSC)NC(=O)CCCCCNC(=O)C[C@@H](C(=O)O)NC(=O)[C@H](Cc2c[nH]c3ccccc23)NC(=O)[C@H](Cc2ccccc2)NC(=O)[C@H](CS)NC1=O
B3: SEQ ID NO: 192 (peptide)
peptide: XMWFLICAWD
HELM: PEPTIDE1{[O=C(CCCCCN[*:1])[*:2]].M.W.F.L.I.C.A.W.D}$PEPTIDE1,PEPTIDE1,1:R1-10:R3$$$V2.0
SMILES: CC[C@H](C)[C@@H]1NC(=O)[C@H](CC(C)C)NC(=O)[C@H](Cc2ccccc2)NC(=O)[C@H](Cc2c[nH]c3ccccc23)NC(=O)[C@H](CCSC)NC(=O)CCCCCNC(=O)C[C@@H](C(=O)O)NC(=O)[C@H](Cc2c[nH]c3ccccc23)NC(=O)[C@H](C)NC(=O)[C@H](CS)NC1=O
B4: Peptide 2 (SEQ ID NO: 215) (peptide)
peptide: KLWALIXAWD
HELM: PEPTIDE1{[ac].K.[Nle].W.[Cha].L.I.[Abu].A.W.D}$PEPTIDE1,PEPTIDE1,2:R3-11:R3$$$V2.0
SMILES: CCCC[C@@H]1NC(=O)[C@@H](NC(C)=O)CCCCNC(=O)C[C@@H](C(=O)O)NC(=O)[C@H](Cc2c[nH]c3ccccc23)NC(=O)[C@H](C)NC(=O)[C@H](CC)NC(=O)[C@H]([C@@H](C)CC)NC(=O)[C@H](CC(C)C)NC(=O)[C@H](CC2CCCCC2)NC(=O)[C@H](Cc2c[nH]c3ccccc23)NC1=O
notes: also called Cyclo-acetyl-K*Nle-W-3-cyclohexyl-L-alanine-LI-(amino butyric acid-AWD*-COOH)
B5: SEQ ID NO: 261 (peptide)
peptide: KWALIXAWD
HELM: PEPTIDE1{[ac].K.W.[Cha].L.I.[Abu].A.W.D}$PEPTIDE1,PEPTIDE1,2:R3-10:R3$$$V2.0
SMILES: CC[C@@H]1NC(=O)[C@H]([C@@H](C)CC)NC(=O)[C@H](CC(C)C)NC(=O)[C@H](CC2CCCCC2)NC(=O)[C@H](Cc2c[nH]c3ccccc23)NC(=O)[C@@H](NC(C)=O)CCCCNC(=O)C[C@@H](C(=O)O)NC(=O)[C@H](Cc2c[nH]c3ccccc23)NC(=O)[C@H](C)NC1=O
B6: SEQ ID NO: 262 (peptide)
peptide: KWGLIXAWD
HELM: PEPTIDE1{[ac].K.W.[O=C([C@@H](N[*:1])C1CCCCC1)[*:2]].L.I.[Abu].A.W.D}$PEPTIDE1,PEPTIDE1,2:R3-10:R3$$$V2.0
SMILES: CC[C@@H]1NC(=O)[C@H]([C@@H](C)CC)NC(=O)[C@H](CC(C)C)NC(=O)[C@H](C2CCCCC2)NC(=O)[C@H](Cc2c[nH]c3ccccc23)NC(=O)[C@@H](NC(C)=O)CCCCNC(=O)C[C@@H](C(=O)O)NC(=O)[C@H](Cc2c[nH]c3ccccc23)NC(=O)[C@H](C)NC1=O
B7: SEQ ID NO: 176 (peptide)
peptide: DWFLICFWKG
HELM: PEPTIDE1{D.W.F.L.I.C.F.W.K.G}$PEPTIDE1,PEPTIDE1,1:R3-9:R3$$$V2.0
SMILES: CC[C@H](C)[C@@H]1NC(=O)[C@H](CC(C)C)NC(=O)[C@H](Cc2ccccc2)NC(=O)[C@H](Cc2c[nH]c3ccccc23)NC(=O)[C@@H](N)CC(=O)NCCCC[C@@H](C(=O)NCC(=O)O)NC(=O)[C@H](Cc2c[nH]c3ccccc23)NC(=O)[C@H](Cc2ccccc2)NC(=O)[C@H](CS)NC1=O
B8: SEQ ID NO: 216 (peptide)
peptide: MWALISFWG
HELM: PEPTIDE1{[ac].M.W.[Cha].L.I.S.F.W.G}$$$$V2.0
SMILES: CC[C@H](C)[C@H](NC(=O)[C@H](CC(C)C)NC(=O)[C@H](CC1CCCCC1)NC(=O)[C@H](Cc1c[nH]c2ccccc12)NC(=O)[C@H](CCSC)NC(C)=O)C(=O)N[C@@H](CO)C(=O)N[C@@H](Cc1ccccc1)C(=O)N[C@@H](Cc1c[nH]c2ccccc12)C(=O)NCC(=O)O
B9: SEQ ID NO: 217 (peptide)
peptide: MWGLISFWG
HELM: PEPTIDE1{[ac].M.W.[O=C([C@@H](N[*:1])C1CCCCC1)[*:2]].L.I.S.F.W.G}$$$$V2.0
SMILES: CC[C@H](C)[C@H](NC(=O)[C@H](CC(C)C)NC(=O)[C@@H](NC(=O)[C@H](Cc1c[nH]c2ccccc12)NC(=O)[C@H](CCSC)NC(C)=O)C1CCCCC1)C(=O)N[C@@H](CO)C(=O)N[C@@H](Cc1ccccc1)C(=O)N[C@@H](Cc1c[nH]c2ccccc12)C(=O)NCC(=O)O
notes: also called Hit 1
B10: SEQ ID NO: 225 (peptide)
peptide: MWILISFWG
HELM: PEPTIDE1{[CC(C)(C)C(=O)[*:2]].M.W.I.L.I.S.F.W.G}$$$$V2.0
SMILES: CC[C@H](C)[C@H](NC(=O)[C@H](CC(C)C)NC(=O)[C@@H](NC(=O)[C@H](Cc1c[nH]c2ccccc12)NC(=O)[C@H](CCSC)NC(=O)C(C)(C)C)[C@@H](C)CC)C(=O)N[C@@H](CO)C(=O)N[C@@H](Cc1ccccc1)C(=O)N[C@@H](Cc1c[nH]c2ccccc12)C(=O)NCC(=O)O

target: T1, β-catenin (UniProt P35222 134-665, limits assumed, biotinylated in the SPR and plate assays); experiment: cell-based or functional assay
T1 sequence (looked up): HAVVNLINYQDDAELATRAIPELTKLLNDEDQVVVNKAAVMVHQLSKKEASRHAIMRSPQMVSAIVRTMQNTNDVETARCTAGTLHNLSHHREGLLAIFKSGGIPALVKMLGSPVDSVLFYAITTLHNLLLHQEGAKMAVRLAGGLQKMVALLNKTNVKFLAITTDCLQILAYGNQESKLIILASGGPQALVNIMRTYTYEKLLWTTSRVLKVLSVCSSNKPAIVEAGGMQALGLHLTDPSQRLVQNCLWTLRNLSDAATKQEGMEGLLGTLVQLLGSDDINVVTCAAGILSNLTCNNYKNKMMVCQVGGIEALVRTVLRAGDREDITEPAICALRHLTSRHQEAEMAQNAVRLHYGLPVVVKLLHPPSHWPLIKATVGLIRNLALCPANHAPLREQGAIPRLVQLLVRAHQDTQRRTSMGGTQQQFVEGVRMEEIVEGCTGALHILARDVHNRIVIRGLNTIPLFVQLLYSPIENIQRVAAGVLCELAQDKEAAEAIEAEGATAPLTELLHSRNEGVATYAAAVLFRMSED

Binder | Wnt Reporter EC50 | Proliferation IC50, Endo cells [µM] | Proliferation IC50, Wnt dependent cells [µM]
B1 | > 7.5 µM and ≤ 15 µM |  | 
B2 | ≤ 7.5 µM |  | 
B3 | ≤ 7.5 µM |  | 
[Ado]MWFLICAWD-OH (lactam N-10) [SEQ ID NO: 193] | ≤ 7.5 µM |  | 
Ac-MWFLISFWG-OH [SEQ ID NO: 219] | ≤ 7.5 µM |  | 
H-MW[αMeF]LISFWG-OH [SEQ ID NO: 133] | > 30 µM |  | 
Ac-WFLIAFWG-OH [SEQ ID NO: 196] | ≤ 7.5 µM |  | 
Ac-WILISFWG-OH [SEQ ID NO: 195] | ≤ 7.5 µM |  | 
Ac-WFLISFWG-OH (also called Hit 5) [SEQ ID NO: 220] | ≤ 7.5 µM |  | 
Ac-WFLICFWG-OH [SEQ ID NO: 194] | ≤ 7.5 µM |  | 
B4 | > 30 µM | > 30 | 
B5 | > 7.5 µM and ≤ 15 µM | 7.7 | 4
B6 |  | 26.3 | 5
B7 | > 7.5 µM and ≤ 15 µM |  | 
[Ado]MWFLICFWD-OH (lactam N-10) [SEQ ID NO: 190] | ≤ 7.5 µM |  | 
B8 | ≤ 7.5 µM |  | 
Ppa-MWILISFWG-OH (reading uncertain; also: printed as Ppa-MWILISFWG-COOH, also called Hit 2) [SEQ ID NO: 224] | ≤ 7.5 µM |  | 
Ac-MWLLISFWG-OH [SEQ ID NO: 218] | ≤ 7.5 µM |  | 
B9 | ≤ 7.5 µM |  | 
Ac-MWILISFW[Sar]-OH [SEQ ID NO: 221] | ≤ 7.5 µM |  | 
B10 | ≤ 7.5 µM |  | 
{Bz′}-MWILISFWG-OH [SEQ ID NO: 223] | ≤ 7.5 µM |  | 

target: T1, β-catenin; experiment: competitive FP
How it was run: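 Competitive fluorescence polarization with inhibitor peptide serially diluted from 10 nM to 30 uM; polarization read at 470 nm excitation, 520 nm emission. Experiments performed three times.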

Binder | Kd
B1 | > 10 µM and ≤ 30 µM
B2 | > 0.4 µM and ≤ 1 µM
B3 | ≤ 0.4 µM
[Ado]MWFLICAWD-OH (lactam N-10) [SEQ ID NO: 193] | > 0.4 µM and ≤ 1 µM
Ac-MWFLISFWG-OH [SEQ ID NO: 219] | > 0.4 µM and ≤ 1 µM
H-MW[αMeF]LISFWG-OH [SEQ ID NO: 133] | ≤ 0.4 µM
Ac-WFLIAFWG-OH [SEQ ID NO: 196] | > 0.4 µM and ≤ 1 µM
Ac-WILISFWG-OH [SEQ ID NO: 195] | ≤ 0.4 µM
Ac-WFLISFWG-OH (also called Hit 5) [SEQ ID NO: 220] | > 0.4 µM and ≤ 1 µM
Ac-WFLICFWG-OH [SEQ ID NO: 194] | > 0.4 µM and ≤ 1 µM
B4 | ≤ 0.4 µM
B5 | > 0.4 µM and ≤ 1 µM
B6 | > 0.4 µM and ≤ 1 µM
B7 | > 10 µM and ≤ 30 µM
[Ado]MWFLICFWD-OH (lactam N-10) [SEQ ID NO: 190] | > 0.4 µM and ≤ 1 µM
B8 | > 0.4 µM and ≤ 1 µM
Ppa-MWILISFWG-OH (reading uncertain; also: printed as Ppa-MWILISFWG-COOH, also called Hit 2) [SEQ ID NO: 224] | ≤ 0.4 µM
Ac-MWLLISFWG-OH [SEQ ID NO: 218] | ≤ 0.4 µM
B9 | ≤ 0.4 µM
Ac-MWILISFW[Sar]-OH [SEQ ID NO: 221] | ≤ 0.4 µM
B10 | > 0.4 µM and ≤ 1 µM
{Bz′}-MWILISFWG-OH [SEQ ID NO: 223] | ≤ 0.4 µM

Reference: patent US20260098059A1 (ENDOMET BIOSCIENCES, published 2026)
